Measured values taken from paper PMC8605023.

Experiments:
[1] = target: G3BP1 NTF2 domain (human) (UniProt Q13283)
[2] = target: G3BP2 NTF2 domain (human) (UniProt Q9UN86)
USP7 (human) = USP7 (human) (UniProt Q93009)
[3] = target: MAP1LC3C ATG8 domain (human) (UniProt Q9BXW4)
Chain of MAP1LC3C ATG8 domain (human) (Q9BXW4 1-126): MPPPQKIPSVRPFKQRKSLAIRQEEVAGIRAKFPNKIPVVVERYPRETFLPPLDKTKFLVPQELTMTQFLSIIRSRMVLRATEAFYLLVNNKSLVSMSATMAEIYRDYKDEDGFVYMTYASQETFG

Chain of USP7 (human) (Q93009 whole entry, the tested form may be a part): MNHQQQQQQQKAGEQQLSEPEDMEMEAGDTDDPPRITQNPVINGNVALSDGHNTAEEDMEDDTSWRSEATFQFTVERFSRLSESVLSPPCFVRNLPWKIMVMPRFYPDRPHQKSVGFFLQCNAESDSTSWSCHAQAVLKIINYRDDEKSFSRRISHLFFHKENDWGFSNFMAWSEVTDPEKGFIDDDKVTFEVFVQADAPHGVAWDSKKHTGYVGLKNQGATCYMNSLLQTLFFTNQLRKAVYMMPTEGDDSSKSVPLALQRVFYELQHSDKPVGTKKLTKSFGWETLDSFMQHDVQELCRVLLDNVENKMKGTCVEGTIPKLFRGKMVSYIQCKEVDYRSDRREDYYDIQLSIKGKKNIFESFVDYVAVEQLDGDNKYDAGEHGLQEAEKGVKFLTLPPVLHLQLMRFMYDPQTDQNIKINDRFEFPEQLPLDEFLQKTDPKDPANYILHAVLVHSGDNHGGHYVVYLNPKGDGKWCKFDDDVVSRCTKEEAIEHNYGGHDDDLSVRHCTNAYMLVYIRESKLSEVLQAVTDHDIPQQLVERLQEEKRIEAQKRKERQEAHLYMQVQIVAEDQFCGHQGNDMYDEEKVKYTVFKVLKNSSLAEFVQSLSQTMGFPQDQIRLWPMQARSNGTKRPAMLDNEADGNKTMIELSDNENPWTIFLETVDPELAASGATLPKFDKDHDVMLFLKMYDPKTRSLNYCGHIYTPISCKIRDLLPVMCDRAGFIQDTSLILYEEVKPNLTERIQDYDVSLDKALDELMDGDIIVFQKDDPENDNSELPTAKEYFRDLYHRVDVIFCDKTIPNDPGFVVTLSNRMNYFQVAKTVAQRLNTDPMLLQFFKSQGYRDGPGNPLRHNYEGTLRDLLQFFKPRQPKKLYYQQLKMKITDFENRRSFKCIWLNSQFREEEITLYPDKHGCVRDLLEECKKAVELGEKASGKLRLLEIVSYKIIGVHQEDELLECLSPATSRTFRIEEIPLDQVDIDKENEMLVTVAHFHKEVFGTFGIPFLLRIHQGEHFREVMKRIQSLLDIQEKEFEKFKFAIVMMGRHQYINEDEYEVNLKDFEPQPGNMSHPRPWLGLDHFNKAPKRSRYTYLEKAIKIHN
Chain of G3BP1 NTF2 domain (human) (Q13283 11-133): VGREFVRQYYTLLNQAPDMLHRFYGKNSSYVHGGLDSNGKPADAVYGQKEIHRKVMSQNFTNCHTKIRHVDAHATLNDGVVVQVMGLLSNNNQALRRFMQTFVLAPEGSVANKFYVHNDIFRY
Chain of G3BP2 NTF2 domain (human) (Q9UN86 11-133): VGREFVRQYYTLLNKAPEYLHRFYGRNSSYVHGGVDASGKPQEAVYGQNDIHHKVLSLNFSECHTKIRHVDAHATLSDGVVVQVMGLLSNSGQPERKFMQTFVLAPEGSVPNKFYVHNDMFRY

Row | Substance | IC50 [1] | IC50 [2] | IC50 (USP7 (human)) | Ki (USP7 (human)) | IC50 [3] | Ki [3]
1 | N peptide 12-26 (Sars-CoV2) | 17 µM | 10 µM | – | – | – | –
2 | N peptide 405-419 (Sars-CoV2) | – | – | 1050 µM | 150 µM | – | –
3 | NSP3 peptide 2019-2034 (Sars-CoV2) | – | – | 270 µM | 37 µM | 1530 µM | 210 µM
